Assay results published in patent US20170363643A1.

Experiments:
[1] = target: His-tagged recombinant human SMN protein (ProteinTech, catalog # ag14333) (human) (UniProt Q16637); experiment: Erenna sandwich assay, capture MABE230 12.5 µg/mg MPs; Det Ab 500 ng/mL; SMN 0.23 pg/mL
[2] = target: His-tagged recombinant human SMN protein (ProteinTech, catalog # ag14333) (human) (UniProt Q16637); experiment: Erenna sandwich assay, capture MABE230 12.5 µg/mg MPs; Det Ab 500 ng/mL; SMN 0.46 pg/mL
[3] = target: His-tagged recombinant human SMN protein (ProteinTech, catalog # ag14333) (human) (UniProt Q16637); experiment: Erenna sandwich assay, capture MABE230 12.5 µg/mg MPs; Det Ab 500 ng/mL; SMN 0.93 pg/mL
[4] = target: His-tagged recombinant human SMN protein (ProteinTech, catalog # ag14333) (human) (UniProt Q16637); experiment: Erenna sandwich assay, capture MABE230 12.5 µg/mg MPs; Det Ab 500 ng/mL; SMN 3.70 pg/mL
[5] = target: His-tagged recombinant human SMN protein (ProteinTech, catalog # ag14333) (human) (UniProt Q16637); experiment: Erenna sandwich assay, capture MABE230 12.5 µg/mg MPs; Det Ab 1000 ng/mL; SMN 0.12 pg/mL
[6] = target: His-tagged recombinant human SMN protein (ProteinTech, catalog # ag14333) (human) (UniProt Q16637); experiment: Erenna sandwich assay, capture MABE230 12.5 µg/mg MPs; Det Ab 1000 ng/mL; SMN 0.93 pg/mL
[7] = target: His-tagged recombinant human SMN protein (ProteinTech, catalog # ag14333) (human) (UniProt Q16637); experiment: Erenna sandwich assay, capture MABE230 12.5 µg/mg MPs; Det Ab 1000 ng/mL; SMN 7.41 pg/mL
[8] = target: His-tagged recombinant human SMN protein (ProteinTech, catalog # ag14333) (human) (UniProt Q16637); experiment: Erenna sandwich assay, capture MABE230 12.5 µg/mg MPs; Det Ab 1000 ng/mL; SMN 22.22 pg/mL
[9] = target: His-tagged recombinant human SMN protein (ProteinTech, catalog # ag14333) (human) (UniProt Q16637); experiment: Erenna sandwich assay, capture MABE230 12.5 µg/mg MPs; Det Ab 1000 ng/mL; SMN 66.67 pg/mL
[10] = target: His-tagged recombinant human SMN protein (ProteinTech, catalog # ag14333) (human) (UniProt Q16637); experiment: Erenna sandwich assay, capture MABE230 12.5 µg/mg MPs; Det Ab 1000 ng/mL; SMN 200.00 pg/mL
[11] = target: endogenous SMN protein in human CSF (human) (UniProt Q16637); experiment: Erenna sandwich assay, capture MABE230; human CSF sample 3, unspiked (endogenous SMN only)
[12] = target: endogenous SMN protein in human CSF (human) (UniProt Q16637); experiment: Erenna sandwich assay, capture MABE230; human CSF sample 4, unspiked (endogenous SMN only)
[13] = target: His-tagged recombinant human SMN protein (ProteinTech, catalog # ag14333) (human) (UniProt Q16637); experiment: Erenna sandwich assay, capture MABE230; SMN 2 pg/mL, MPs 5 µg/well, Det Ab 50 ng/mL, Cap Ab/MP 25 µg/mg
[14] = target: His-tagged recombinant human SMN protein (ProteinTech, catalog # ag14333) (human) (UniProt Q16637); experiment: Erenna sandwich assay, capture MABE230; SMN 2 pg/mL, MPs 10 µg/well, Det Ab 100 ng/mL, Cap Ab/MP 25 µg/mg
[15] = target: His-tagged recombinant human SMN protein (ProteinTech, catalog # ag14333) (human) (UniProt Q16637); experiment: Erenna sandwich assay, capture MABE230; SMN 2 pg/mL, MPs 10 µg/well, Det Ab 50 ng/mL, Cap Ab/MP 12.5 µg/mg
[16] = target: His-tagged recombinant human SMN protein (ProteinTech, catalog # ag14333) (human) (UniProt Q16637); experiment: Erenna sandwich assay, capture MABE230; SMN 2 pg/mL, MPs 10 µg/well, Det Ab 500 ng/mL, Cap Ab/MP 12.5 µg/mg
[17] = target: His-tagged recombinant human SMN protein (ProteinTech, catalog # ag14333) (human) (UniProt Q16637); experiment: Erenna sandwich assay, capture MABE230; SMN 2 pg/mL, MPs 10 µg/well, Det Ab 1000 ng/mL, Cap Ab/MP 12.5 µg/mg
[18] = target: His-tagged recombinant human SMN protein (ProteinTech, catalog # ag14333) (human) (UniProt Q16637); experiment: Erenna sandwich assay, capture MABE230; human CSF sample 2 spiked with recombinant SMN 5.0 pg/mL (endogenous SMN also present)
[19] = target: His-tagged recombinant human SMN protein (ProteinTech, catalog # ag14333) (human) (UniProt Q16637); experiment: Erenna sandwich assay, capture MABE230; human CSF sample 3 spiked with recombinant SMN 5.0 pg/mL (endogenous SMN also present)
[20] = target: His-tagged recombinant human SMN protein (ProteinTech, catalog # ag14333) (human) (UniProt Q16637); experiment: Erenna sandwich assay, capture MABE230; human CSF sample 4 spiked with recombinant SMN 5.0 pg/mL (endogenous SMN also present)
[21] = target: His-tagged recombinant human SMN protein (ProteinTech, catalog # ag14333) (human) (UniProt Q16637); experiment: Erenna sandwich assay, capture MABE230; human CSF sample 2 spiked with recombinant SMN 10.0 pg/mL (endogenous SMN also present)
[22] = target: His-tagged recombinant human SMN protein (ProteinTech, catalog # ag14333) (human) (UniProt Q16637); experiment: Erenna sandwich assay, capture MABE230; human CSF sample 5 spiked with recombinant SMN 10.0 pg/mL (endogenous SMN also present)

ProteinTech anti-SMN2 (catalog #60154-1-Ig) (antibody)
detected events (DE) (detected events) [1]: 301
event photons (EP) (event photons) [1]: 40000
detected events (DE) (detected events) [2]: 562
event photons (EP) (event photons) [2]: 77500
detected events (DE) (detected events) [3]: 967
event photons (EP) (event photons) [3]: 135000
detected events (DE) (detected events) [4]: 3190
event photons (EP) (event photons) [4]: 497000
detected events (DE) (detected events) [5]: 193
event photons (EP) (event photons) [5]: 26300
detected events (DE) (detected events) [6]: 1170
event photons (EP) (event photons) [6]: 171000
detected events (DE) (detected events) [7]: 7200
event photons (EP) (event photons) [7]: 1.32e+06
detected events (DE) (detected events) [8]: 13100
event photons (EP) (event photons) [8]: 4.64e+06
detected events (DE) (detected events) [9]: 11500
event photons (EP) (event photons) [9]: 1.06e+07
detected events (DE) (detected events) [10]: 9360
event photons (EP) (event photons) [10]: 2.04e+07
detected events (DE) (detected events) [11]: 278
detected events (DE) (detected events) [12]: 375
detected events (DE) (detected events) [13]: 560
detected events (DE) (detected events) [14]: 1130
detected events (DE) (detected events) [15]: 681
detected events (DE) (detected events) [16]: 2120
detected events (DE) (detected events) [17]: 2920
detected events (DE) (detected events) [18]: 5310
detected events (DE) (detected events) [19]: 5980
detected events (DE) (detected events) [20]: 5810
detected events (DE) (detected events) [21]: 9630
detected events (DE) (detected events) [22]: 9440
